The nature of this data set: label from the status in PepcDB records.
For “MATKGLKMVTLALLDDKGVIVKGETGLSTNGVFPITDEMLGTKTANITNLSSAPTMIYGNDGQVDADIAKGTPSVAFAFNGLPVDIKNKLLGRVNDTKGGYTQGSIPKVAVLIQTTTIGTAKPQYVAFAAGKMNETAMNLQTNTNAVVRVDDALTFTAFSVSRWGGEAVKFFDGGDSKFTEDVMMKDVFNGYAGVGV”, the protein production result is “failed”.
For “MATKLVIAIVQDKDANYLSDQFIDQNVRATKLSTTGGFLQSGNTTFMIGIEEERVPEVLEIIKKASHTREEFMTPSVNMDVNMEGTTAYPIKVQVGGATVLVLPVDQFERF”, the protein production result is recorded as “not failed”.
On to “MATLDERARPWARKSRWNGYAYEFLLFGLKQAWACLFGGLMLALLVGTKLFWPEAAPIARYDFLVVAAIAIQASLLALKLERWDEALVIFMFHVVGTIMELFKTAHGSWIYPEDSVLRIGGVPLFTGFMYACVGSYIARIWRLFDITFIRYPPFWTTHILAVLIYANFFTHHYMIDIRVGLFALSVLLFGRTWFVFTPDQTARRMPMLMGAVLVSLFIWFAENLGTFAGAWIYPNQADGWQMVPFEKMGAWYLLMLISFVLVTLVHPPVHACVARIRQGIWRAA”, for which the protein production result is listed as “failed”.
On to “MATLGANASLYSEQHRITYYECDRTGRATLTTLIDIAVLASEDQSDALGLTTEMVQSHGVGWVVTQYAIDITRMPRQDEVVTIAVRGSAYNPYFAYREFWIRDADGQQLAYITSIWVMMSQTTRRIVKILPELVAPYQSEVVKRIPRLPRPISFEATDTTITKPYHVRFFDIDPNRHVNNAHYFDWLVDTLPATFLLQHDLVHVDVRYENEVKYGQTVTAHANILPSEVADQVTTSHLIEVDDEKCCEVTIQWRTLPEPIQ”, for which the protein production entry was “not failed”.
To “MATLSFGIAAAATTVRTIPRFNSRRSKITCEWDPKGVLGPAQTGHIARLEFKRRLERDSEAREAFQKQLREEKERRQALRQSRVVPDTAAELIEYFLDTEAQEIEYEIARLRGRLNDEFFAQIRLEIGQIRFAVTKTADIEDRLIELETLQKALEEGIEAYDKMQNELMTATNSLTKLLTSTDIKTTLLDMVEKNQINRSLLALLDENIANAYKGNQKEAGDYMEKIRSSVLKYLTV” belongs “failed”.
To “MATLTEDDVLEQLDAQDNLFSFMKTAHSILLQGIRQFLPSLFVDNDEEIVEYAVKPLLAQSGPLDDIDVALRLIYALGKMDKWLYADITHFSQYWHYLNEQDETPGFADDITWDFISNVNSITRNATLYDALKAMKFADFAVWSEARFSGMVKTALTLAVTTTLKELTP” belongs “not failed”.
Regarding “MATPKFAEIKQYITGCIESGEWEENARVPSENQLAELFVCSRMTARRALTELTDNGVLERSQGLGTFVAGRKSQSSMLAIRNIADEIKDRGHGYSVQQLALEQVNATAPIAIALALDVGSPVFHSILVHCEQGVPLQVEERYVNPAFAPDYLVQDFSEQTPHEYLSQVAPLTEAHHTIEAIIASSELQQRLAIPATEPCLQISRRTWSRQGVVSFAKLVHPGSRFKLGGHLTFNK”, the protein production entry is given as “failed”.
Regarding “MATPSGIVRFPGAGCVVEFMQGNRPQIAWVMEEQGGRLRLFLPNRRETKLAAARLLPWAGPRYDGERSRDDMVALLEEHRQRRDTREADIQPLELWEMVQGEVEQASVEWFAELLGETPGVDEVAAMGRALLGCKTHFKFHPPDFEVYDAAKVEARMVEMEAARVREALVEAGQAFIKVLWDVHCRRRTMPLPSSSEMPPAEVAERLATLLRTRMADPDDHDSDSVWKQVTKGLPDDAHMPLHLAAAWGIVPVHHNFWMDRAGYAPGDEWAIDHVDEIDALMKRVEALREPLVDGTFISIDSSTTRDIDDAFDISPSPEGGWILRLVLASPVTGWDFDGPLDRAVLRRATSIYLPERSHHMMPETLGTDAYSLLAGQDRPALLVTFDIAPDGSLRSTTPATGWVRLAANLTYTECEACLTGEGDAGRAAPHADRLALADALARVRQQLRVAAGAVIIERDDPKVTLEGEGCAVKVHVAPPDETPRAQLLVSEMMILANAAIASWGAERGITLLHRTQDVGIPREYAGVWNQPHDIARVVKALAPAHLEPVAKPHAGIAVPAYSPVTSPLRRYPDLVNEAQVIHYLTHGTPRWSREEVEAMLPLLGARLDAAGQVQRFRPRYWKLFYIRQQGDKAWHEAVVTEENDAFVTISLPEVQIFVRGRRSTFGDKVYPGQHFNVRLGKVHPLNNEIQIVDAMEG”, the protein production result is recorded as “failed”.
For the sequence “MATPTQTPTKAPEEPDPFYYDYNTVQTVGMTLATILFLLGILIVISKKVKCRKADSRSESPTCKSCKSELPSSAPGGGGV”, the protein production entry is on record as “not failed”.
With “MATRAPASTLRQIPSGIWMLGCVSLLMDISSEIIHSLLPVFMVTTLGASALAVGLIEGAAEATALIVKVFSGVLSDYLGKRKALAVLGYGLGALSKPLFAVAPGVGTILAARLSDRIGKGIRGAPRDALVADIAPAHLRGAAFGLRQALDTVGAFLGPLIAIGLMMLWANDFRAIFWVAVVPGVLSVALLAFGVKEPQTHTGDKRVNPIRRANLARLGPAYWGVVAVGTAFALARFSEAFLILRVQQEGLPLFMAPLVLVTMNAVFAVTAYPFGKLADNCSHDKLLVAGLAVLIVADTVLAVGSHWSIALVGVALWGLHMGMTQGLLATMVADAAPADLRGTAFGVFNLASGLALLAASVMAGWLWDRHGAAATFHAGAGFCVLTIALLIHRLRNRPASGAATR”, the protein production entry is listed as “failed”.
Turning to “MATSAKTLQQRMGIIALTWPIFIETLLQSLLGISDIFMLSHYSDNAVAAVGLTTQLMFFMMVMSMMVSTGASILISQNNGAGRTQEATDIGVASVALSLGLAVVMGAAMFFCAHGIIGLFELEPKVAGYGYDYLLICGSLSIGLVMNIAFAAILRSYGFTRSAMLVTLSTGLMNVLGNYIALYSPFGLPVYGVTGVAISTVTSQLMGALIMLAVIRSKHIPLPMQRLNSLPRSTYWSVMRIGLLNAGEMLSYNVAQMTIIYFISQMGTLSLTAYTYGLNISRFIYCFSVALGQAAQIQTGYYVGKQWFDEITVRVQKYCLVGFIVSLAIVLIFFWQRFTIVGWLSENPEVIQLTALLLLGSIALETGRVFNLVIISALKGAGDVAFTVRVGLFSMWGIGVLLAWFFGLYLGYGVLAAWLAVAADEWVRGLIMVQRWRSGRWQRFTRIPPATSA”, the protein production entry is “failed”.
Take “MATSRTQRDVWVYVGIGAMVSALVLFSLVPLVMGLWQPRPAADGVVNGGTPLESQALGYQLVLEREPDNVNALQGLLEIRLQQKNLAAAIAPLERLGQIRTDQVQYRILLAQLKTQLEDNAGAAKVYREILTQSPHNIQALKGLSGLYAQQERPAEAVAIVQNAITQAIKAQTGAPGTVPPDQLTSLQLLLGEIYLSQNRPDQAIAIYEAASKVNGNDFRPVLAQAQVMAQTGKVKEADPFFQQAIMLAPVQYKDPIKNIALQVTNQALANQNGAPETSIPSPAPILKSE”: the protein production result was “failed”.
To “MATTKKKPIHVNVDENLKEEAEQLFDDLGLNMTSAITIFLKQSINEQAIPFMINKGNKETLQALKDIKEGNVHGGFSSVEDLMEDLNALEHHHHHH” belongs “not failed”; to “MATVEEIEKYCRNCVSRDFVNGKGLVCKRTRELPDFDEECENFEKDEELLKMAPPKPDDFPVSMTEEELLAEENLPKGVLYASVACILGAVAWSLISVSTGLQMGYMAIGVGFLVGFAMRQGKGIRPVFGLLGAALALISCVLGDFLSIIGFAAKDYDMTFFEVLAGVDYGEIFSVMVKNVVSMSALFYGIAVYEGYKLSFRAQKHPVGGKI”, “failed”.
For “MAVARHETGPFATVSALASQVHPVFMLPPLATSLFGGLLSGGFWPPVAVLHAGAMFFAVYTAHVKDGYVDFHVRGEDDDHPLTGAGCRMALVGAGVGFALCTAAIWLLVGPGAALLTLPTWIIGYTHAPQLDMNPVGATMGYPAGIALALLGGYYAQVTTLTPRAVGLAAVFLLLLTGIKIIDDEQDYDYDRSIQKRTVAVVLGHQRARQLALGLFGVALLGIVGLSVALPGIPPSAAAAALVFGAVAAIAQRGDPETATMLLIRGSYLLLAVLVTAVWFRPLA” the value was “failed”; for “MAVDDSEEGKPAESEAPLDLLQDWEHARAHAVPFSDSLLTECILVDQECVTNTKIKQEVNASSGCNTTPDSNTQDSDKIDYIESMDVCSNVEIESTEDSIVTGLNSGNAEDVDMTPGWRRKRNQKSKKSYIGTKDVLDQTLDKDIPLNKQNRRFPITARPVKRECVKKYERETFENGNERVYSTSSPRGRVYLLNDAAKL”, “failed”; for “MAVESAAVGVFDSGVGGLSVLREIRARLPSESLLYVADNAHVPYGEKSAEYIRERCERIGDFLLEQGAKALVLACNTATAAAAAELRERYPQVPLVAMEPAVKPAAAATRNGRVGVLATTGTLKSARFAALLDRFASDVQVFTQPCPGLVERIEAGDLYGPQTRALLERLLAPILEQGCDTLILGCTHYPFVKPLLAELIPAEMAVIDTGAAVARQLERVLSARALLASGQAATPRFWTSALPEEMERILPILWGSPESVGKLVV”, “failed”.
For “MAVEVVYRSSRDPERLFMDKAEADRHDKMLELAERLAEVLHKAVPSLTEQQVEEAGIYMAKNRDVFARAFKSQPDALAELLEGTAAE” the value was “not failed”.
Consider “MAVQENLLLGAKASKNATLTLVFLSILKGVVGFYSGSASLIADAIHTSLDIFTSLAVWIGLKLSMRGSEEKFPYGYYKADNLVSLFVSIIILFSGVELVREALLNIASPVEIKLQGIALGTAVFSVIAMYALSQYKFKVGKQIDSQALIADALHSYTDVFSSLIVAITIIGSLLGVLWLDSAGVLVISLMIFKLGIGMAKDSILTLMDAWLDKDSIERIRQNVGSIQGVKTVDEIRLRKSGLVVFGEIEIEIEGDASLKRVEMLFEEIEKTVKNEVKNLEHLVVNVKPEKISVMKIAVPVLMQEGLHSKVSRHFSKAPYFIFIELENNDIISWDVSENPAAGLEKKKGLKAAEFLKDQGVNVLIAGEIGEAPFHTLRDNFVKLLQMPEEIEDVEQVVKKVSELNTLTAPTE”, for which the protein production result is “failed”.
On to “MAVTRRLLMAVVGLFSLLVYFTAAYVGYLLLLPVWDSRPSPLMAALFVLGTAIALGVVNYWAATAQLKRSLNAVELPRARAPEAYHRLDALVDQMNVETPTLLLAELPVPNAFAIGGGTGTIVVDRRLFRLLSAAEFEGLLAHELAHLETRDALVQTVAYSFVQTLVGLIGLALFPIVVLTGGIARSLALLRGDPSSWSRSWLGRAQRYSLQVVAGLGFAVTLLLLGYSRRRELAADDRAVEITGNPVGLARALAKIEQASTPDPGLLRQVYVHSEADNELSRLLSTHPPIDERMQRLQDRAQYGNFTKSSERPSSRR”, for which the protein production result is reported as “failed”.
For “MAVYANTSVQDFYEFWLEEVKKKSLSYNSYYSFKKTVQNYILPLYGRLSMGKLRKNHVKRIYKKTYETSPSVAKIVKTVLTTSFKYALRYGYVEEDYVTGLKWNRVILEHHHHHH” the value was “failed”; for “MAWNQPGNNGQDRDPWGSSKPGGNSEGNGNKGGRDQGPPDLDDIFRKLSKKLGGLGGGKGTGSGGGSSSQGPRPQLGGRVVTIAAAAIVIIWAASGFYTIKEAERGVVTRFGKFSHLVEPGLNWKPTFIDEVKPVNVEAVRELAASGVMLTSDENVVRVEMNVQYRVTNPEKYLYSVTSPDDSLRQATDSALRGVIGKYTMDRILTEGRTVIRSDTQRELEETIRPYDMGITLLDVNFQAARPPEEVKAAFDDAIAARENEQQYIREAEAYTNEVQPRANGQAQRILEEARAYKAQTILEAQGEVARFAKLLPEYKAAPEITRERLYIETMEKVLGNTRKVLVNDKGGNLMVLPLDQMLKGGNAPAAKSDNGASNLLRLPPASSSTTSGASNTSSTSQGDIMDQRRANAQRNDYQRQGE”, “failed”; for “MAYDSRLPEQRDPATDPSANYDYQGDSVNRPDLVSALEQRVDGDVRFDTYTRELFATDASAYEQLPIGVVSPVSTEDVVAVMEYCAAEDIPVLPRGGGTSLAGQAVNEAVVLDFKRYMDE”, “not failed”.
To “MAYITYQQYLDLYGTCPISEEEFPVYAGLASDMIDSITRYRIVEGGGISALPSILQTLVQKAAAAQVLYFTQIGLETVLTGQAGQSFTVGKVSVSGGALSSTTTKPGALMVSPFALSLLEQTPLMERGVHVCSDRFLNPFWGILEHHHHHH” belongs “failed”.
